Laboratory results as given in the supplement of paper PMC10567573.

B1: STX5 (parent)
chain: RSEFTLMAKRIGKDLSNTFAKLEK
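Also: lentivirally expressed fusions sorted by FACS into six bins by GFP to DsRed ratio, PSI derived from sequencing read proportions per bin multiplied by bin number.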

Variants of: B1
Experiment: protein stability index of a GFP-peptide fusion (GPS, HEK-293T) (PSI 1-6); higher = more stable
Conditions: c terminus: a fixed tail appended
Variant RSEFTLMAKRIGKDLSNEFAKLEK [T18E] has a protein stability index of 2.94. For RSEFTLMAKRIGKDLSNFFAKLEK [T18F], the protein stability index was 4.45. In the case of RSEFTLMAKRIGKDLSNGFAKLEK [T18G], the protein stability index is reported as 3.21. Variant RSEFTLMAKRIGKDLSNHFAKLEK [T18H] has a protein stability index of 2.41. With RSEFTLMAKRIGKDLSNIFAKLEK [T18I] the protein stability index was 3.4. Variant RSEFTLMAKRIGKDLSNKFAKLEK [T18K] has a protein stability index of 3.25. Work on RSEFTLMAKRIGKDLSNMFAKLEK [T18M] yielded a protein stability index of 2.63. With RSEFTLMAKRIGKDLSNNFAKLEK [T18N] the protein stability index was 1.27. With RSEFTLMAKRIGKDLSNPFAKLEK [T18P] the protein stability index was 2.45. Variant RSEFTLMAKRIGKDLSNQFAKLEK [T18Q] has a protein stability index of 2.02. With RSEFTLMAKRIGKDLSNRFAKLEK [T18R] the protein stability index was 1.77. Variant RSEFTLMAKRIGKDLSNSFAKLEK [T18S] has a protein stability index of 1. Variant RSEFTLMAKRIGKDLSNVFAKLEK [T18V] has a protein stability index of 2.21. Variant RSEFTLMAKRIGKDLSNWFAKLEK [T18W] has a protein stability index of 1.96. With RSEFTLMAKRIGKDLSNYFAKLEK [T18Y] the protein stability index was 3.54. For RSEFTLMAKRIGKDLSNTAAKLEK [F19A], the protein stability index was 2.79. In the case of RSEFTLMAKRIGKDLSNTCAKLEK [F19C], the protein stability index is reported as 2.69. For RSEFTLMAKRIGKDLSNTDAKLEK [F19D], the protein stability index was 4.69. In the case of RSEFTLMAKRIGKDLSNTEAKLEK [F19E], the protein stability index is reported as 4.74. Work on RSEFTLMAKRIGKDLSNTGAKLEK [F19G] yielded a protein stability index of 3.57. Variant RSEFTLMAKRIGKDLSNTHAKLEK [F19H] has a protein stability index of 3.27. For RSEFTLMAKRIGKDLSNTIAKLEK [F19I], the protein stability index was 2.24. With RSEFTLMAKRIGKDLSNTKAKLEK [F19K] the protein stability index was 2.71. Work on RSEFTLMAKRIGKDLSNTMAKLEK [F19M] yielded a protein stability index of 1.62. In the case of RSEFTLMAKRIGKDLSNTNAKLEK [F19N], the protein stability index is reported as 3.42. Variant RSEFTLMAKRIGKDLSNTPAKLEK [F19P] has a protein stability index of 3.94. Work on RSEFTLMAKRIGKDLSNTQAKLEK [F19Q] yielded a protein stability index of 3.44. RSEFTLMAKRIGKDLSNTRAKLEK [F19R] showed a protein stability index of 3.88. With RSEFTLMAKRIGKDLSNTSAKLEK [F19S] the protein stability index was 3.85. For RSEFTLMAKRIGKDLSNTTAKLEK [F19T], the protein stability index was 3.8. For RSEFTLMAKRIGKDLSNTVAKLEK [F19V], the protein stability index was 1.96. RSEFTLMAKRIGKDLSNTWAKLEK [F19W] gave a protein stability index of 2.48. RSEFTLMAKRIGKDLSNTYAKLEK [F19Y] gave a protein stability index of 2.38. In the case of RSEFTLMAKRIGKDLSNTFCKLEK [A20C], the protein stability index is reported as 3.2. RSEFTLMAKRIGKDLSNTFDKLEK [A20D] showed a protein stability index of 2.15. RSEFTLMAKRIGKDLSNTFEKLEK [A20E] gave a protein stability index of 1.58. For RSEFTLMAKRIGKDLSNTFIKLEK [A20I], the protein stability index was 1.63. RSEFTLMAKRIGKDLSNTFMKLEK [A20M] gave a protein stability index of 2.64. RSEFTLMAKRIGKDLSNTFNKLEK [A20N] showed a protein stability index of 1.84. RSEFTLMAKRIGKDLSNTFPKLEK [A20P] gave a protein stability index of 3.3. Variant RSEFTLMAKRIGKDLSNTFSKLEK [A20S] has a protein stability index of 1.32. Variant RSEFTLMAKRIGKDLSNTFTKLEK [A20T] has a protein stability index of 2.69. For RSEFTLMAKRIGKDLSNTFVKLEK [A20V], the protein stability index was 2.24. Variant RSEFTLMAKRIGKDLSNTFWKLEK [A20W] has a protein stability index of 2.44. For RSEFTLMAKRIGKDLSNTFAALEK [K21A], the protein stability index was 1.96. In the case of RSEFTLMAKRIGKDLSNTFACLEK [K21C], the protein stability index is reported as 2.69. For RSEFTLMAKRIGKDLSNTFADLEK [K21D], the protein stability index was 1.91. RSEFTLMAKRIGKDLSNTFAELEK [K21E] gave a protein stability index of 2.04. Work on RSEFTLMAKRIGKDLSNTFAFLEK [K21F] yielded a protein stability index of 2.61. Work on RSEFTLMAKRIGKDLSNTFAGLEK [K21G] yielded a protein stability index of 2.21. In the case of RSEFTLMAKRIGKDLSNTFAHLEK [K21H], the protein stability index is reported as 2.51. In the case of RSEFTLMAKRIGKDLSNTFAILEK [K21I], the protein stability index is reported as 2.12. For RSEFTLMAKRIGKDLSNTFALLEK [K21L], the protein stability index was 2.47. Work on RSEFTLMAKRIGKDLSNTFAMLEK [K21M] yielded a protein stability index of 1.94. Work on RSEFTLMAKRIGKDLSNTFANLEK [K21N] yielded a protein stability index of 1.04. In the case of RSEFTLMAKRIGKDLSNTFAPLEK [K21P], the protein stability index is reported as 2.38. RSEFTLMAKRIGKDLSNTFAQLEK [K21Q] showed a protein stability index of 2.8. RSEFTLMAKRIGKDLSNTFARLEK [K21R] gave a protein stability index of 2.53. In the case of RSEFTLMAKRIGKDLSNTFASLEK [K21S], the protein stability index is reported as 2.95. RSEFTLMAKRIGKDLSNTFATLEK [K21T] gave a protein stability index of 2.01. With RSEFTLMAKRIGKDLSNTFAVLEK [K21V] the protein stability index was 1.4. With RSEFTLMAKRIGKDLSNTFAYLEK [K21Y] the protein stability index was 1.45. Variant RSEFTLMAKRIGKDLSNTFAKAEK [L22A] has a protein stability index of 2.29. RSEFTLMAKRIGKDLSNTFAKCEK [L22C] showed a protein stability index of 1.79. RSEFTLMAKRIGKDLSNTFAKDEK [L22D] showed a protein stability index of 4.25. For RSEFTLMAKRIGKDLSNTFAKEEK [L22E], the protein stability index was 3.74. Work on RSEFTLMAKRIGKDLSNTFAKFEK [L22F] yielded a protein stability index of 2.67. In the case of RSEFTLMAKRIGKDLSNTFAKGEK [L22G], the protein stability index is reported as 3.27. In the case of RSEFTLMAKRIGKDLSNTFAKHEK [L22H], the protein stability index is reported as 2.7. For RSEFTLMAKRIGKDLSNTFAKIEK [L22I], the protein stability index was 4.01. RSEFTLMAKRIGKDLSNTFAKKEK [L22K] gave a protein stability index of 2.47. Work on RSEFTLMAKRIGKDLSNTFAKMEK [L22M] yielded a protein stability index of 2.58. With RSEFTLMAKRIGKDLSNTFAKNEK [L22N] the protein stability index was 3.15. RSEFTLMAKRIGKDLSNTFAKPEK [L22P] gave a protein stability index of 3.06. RSEFTLMAKRIGKDLSNTFAKQEK [L22Q] showed a protein stability index of 2.92. RSEFTLMAKRIGKDLSNTFAKREK [L22R] gave a protein stability index of 2.57. RSEFTLMAKRIGKDLSNTFAKSEK [L22S] gave a protein stability index of 3.17. RSEFTLMAKRIGKDLSNTFAKTEK [L22T] showed a protein stability index of 2.7. Variant RSEFTLMAKRIGKDLSNTFAKVEK [L22V] has a protein stability index of 1.9. For RSEFTLMAKRIGKDLSNTFAKYEK [L22Y], the protein stability index was 1.5. For RSEFTLMAKRIGKDLSNTFAKLAK [E23A], the protein stability index was 1.98. RSEFTLMAKRIGKDLSNTFAKLCK [E23C] showed a protein stability index of 3.47. Variant RSEFTLMAKRIGKDLSNTFAKLDK [E23D] has a protein stability index of 2.2. Work on RSEFTLMAKRIGKDLSNTFAKLFK [E23F] yielded a protein stability index of 2.65. Variant RSEFTLMAKRIGKDLSNTFAKLHK [E23H] has a protein stability index of 3.8. In the case of RSEFTLMAKRIGKDLSNTFAKLIK [E23I], the protein stability index is reported as 2.84. RSEFTLMAKRIGKDLSNTFAKLKK [E23K] gave a protein stability index of 5.04. For RSEFTLMAKRIGKDLSNTFAKLLK [E23L], the protein stability index was 3. Work on RSEFTLMAKRIGKDLSNTFAKLMK [E23M] yielded a protein stability index of 1.34. RSEFTLMAKRIGKDLSNTFAKLPK [E23P] gave a protein stability index of 2.32. In the case of RSEFTLMAKRIGKDLSNTFAKLSK [E23S], the protein stability index is reported as 2.18. RSEFTLMAKRIGKDLSNTFAKLWK [E23W] showed a protein stability index of 2.37. With RSEFTLMAKRIGKDLSNTFAKLED [K24D] the protein stability index was 2.61. With RSEFTLMAKRIGKDLSNTFAKLEE [K24E] the protein stability index was 1.76.
